The target in assay [1] is T1, human FOLR1 recombinant protein (extracellular domain of human folate receptor alpha) (human, UniProt P15328 25-233).
T1 construct: Bought recombinant protein (Sino Biological); also called hFOLR1; FR-alpha
Put plainly: SPR (Biacore T200), single cycle kinetics, His6-tagged VHH immobilized on CM5, human FOLR1 as analyte, 1:1 fit. The protocol: The kinetic parameters of antigen binding for purified VHHs A1, A2 and A3 were determined via surface plasmon resonance with a Biacore T200 instrument (GE Healthcare) using single cycle kinetics mode. While example 4d provides a first and preferred way of assessing the kinetic parameters of antigen binding for VHHs using surface plasmon resonance, this example provides an alternative setup for using surface plasmon resonance to assess the kinetic parameters of antigen binding, inverting the analyte and immobilized ligand. His₆-tagged VHH A1, A2 or A3 was immobilized in 10 mM sodium acetate, pH 5.5 on a CM5 chip (GE Healthcare) via amine coupling chemistry to 160 RU. The human FOLR1 recombinant protein (Sino Biological) was analyzed in a threefold serial dilution in HBS (38.5 nM-0.47 nM) with an analyte flow rate of 30 µl/min. The association phase took 180 s for every concentration and the dissociation phase 900 s. Regeneration was done by a single injection of 50 mM glycine-HCl, pH 2.5, 2 M MgCl2 for 30 s at 30 µl/min, followed by 120 s stabilization. Binding curves were fitted using a ‘1:1 (antigen:analyte)’ binding model in Biacore T200 evaluation software.
Background: SPR reads the build-up and loss of mass on a sensor chip optically.

For assay [2], the target named is T1, human FOLR1 recombinant protein …. The experiment in a line: SPR dual injection on immobilized human FOLR1, 250 nM; competitor (1st VHH, saturating) A5; by the legend the value is of the 2nd VHH. On the procedure: (§1) Competitive binding characteristics of His₆-tagged VHHs were determined via surface plasmon resonance with a Biacore T200 instrument (GE Healthcare). Immobilization of human FOLR1 recombinant protein (Sino Biological) and regeneration were performed as described below for kinetic measurements.
(§2) Table 8: Side-by-side comparison of His₆-tagged VHHs A1, A2, A3, A4, A5 for binding to human FOLR1 to identify competitive binding characteristics. Binding was measured in surface plasmon resonance with immobilized human FOLR1 recombinant protein as the ligand. After saturation of the ligand with VHH 1 an equimolar mixture of VHH 1 and VHH 2 was injected. Percentages express the loss in response level of VHH 2, relative to the response when VHH 2 was injected alone.

Assay [3] has the same target. The experiment in a line: SPR dual injection on immobilized human FOLR1, 250 nM; competitor (1st VHH, saturating) A4; by the legend the value is of the 2nd VHH. The protocol: as §1, §2
Assay [4] has the same target. Put plainly: SPR (Biacore T200), human FOLR1 immobilized on CM5, His6-tagged VHH as analyte, 1:1 fit. The protocol: The kinetic parameters of antigen binding by purified VHHs were determined via surface plasmon resonance with a Biacore T200 instrument (GE Healthcare). The human FOLR1 recombinant protein (Sino Biological) was immobilized in 10 mM sodium acetate, pH 5.5 on a CM5 chip (GE Healthcare) via amine coupling chemistry to 500 RU. His₆-tagged VHHs were analyzed in a twofold serial dilution in HBS (125 nM-0.488 nM for VHHs A4 and A5; 10 nM-0.039 nM for VHHs A1, A2 and A3) with an analyte flow rate of 30 µl/min. The association phase took 180 s (A4-A5) or 450 s (A1-A3) and the dissociation phase 600 s (A4-A5) or 900 s (A1-A3). Regeneration was done by a single injection of 50 mM glycine-HCl, pH 2.5, 2 M MgCl₂ for 30 s at 30 µl/min, followed by 120 s stabilization. Binding curves were fitted using a ‘1:1 (antigen:analyte)’ binding model in Biacore T200 evaluation software.

Assay [5] shares this target. The experiment in a line: SPR dual injection on immobilized human FOLR1, 250 nM; competitor (1st VHH, saturating) A3; by the legend the value is of the 2nd VHH. On the procedure: as §1, §2
For assay [6] the target is unchanged. The experiment in a line: SPR dual injection on immobilized human FOLR1, 250 nM; competitor (1st VHH, saturating) A1; by the legend the value is of the 2nd VHH. The protocol:
as §1, §2

The target of assay [7] is T2, human FOLR1 expressed on SKOV-3 ovarian carcinoma cells (human, UniProt P15328 25-234).
T2 construct: Naturally expressed receptor on SKOV-3 cells; also called human FOLR1pos SKOV-3 cancer cells; human FOLR1-expressing cell line SKOV-3
T2 sequence (P15328 25-234 limits assumed): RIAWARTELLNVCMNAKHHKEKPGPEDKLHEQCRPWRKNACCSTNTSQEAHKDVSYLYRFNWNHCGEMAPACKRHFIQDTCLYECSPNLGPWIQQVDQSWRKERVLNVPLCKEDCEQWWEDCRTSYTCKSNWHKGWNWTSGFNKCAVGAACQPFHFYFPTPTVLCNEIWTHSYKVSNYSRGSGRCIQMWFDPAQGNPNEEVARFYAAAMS
The experiment in a line: cellular retention on SKOV-3 cells: 10 nM 131I-VHH 1 h at 4 C, then up to 24 h at 37 C; membrane-bound plus internalized fraction. On the procedure: The in vitro cellular retention of the different His₆- and untagged ¹³¹I-labeled VHHs was assessed on the same cancer cells. In this particular case, human FOLR1^pos SKOV-3 cancer cells were incubated with 10 nM ¹³¹I-labelled VHHs for 1h at 4° C., after which the unbound fraction was collected. A 100-fold excess of the corresponding unlabeled VHH to assess non-specific binding. Next, the cells were incubated with fresh medium up to 24 h at 37° C., after which the dissociated fraction was collected. Afterwards, the cells were washed with 0.05 M glycine pH 2.8 to collect the membrane-bound fraction. Finally, cells were solubilized with 1 M NaOH at room temperature to collect the internalized fraction. The sum of the membrane-bound and internalized fractions corresponds to the total cell-associated fraction.

The target of assay [8] is T2, human FOLR1 expressed on SKOV-3 ovarian …. Put plainly: saturation binding of 131I-labelled His6-tagged VHH on SKOV-3 cells (0-300 nM); non-specific binding by 100-fold unlabelled VHH. On the procedure: In a first part, their in vitro behaviour was assessed by means of investigating their cellular binding and retention over time. The binding potential of the resulting radioconjugates was assessed to confirm that this was not affected by the introduction of ¹³¹I-SGMIB into the amino acid sequence of the different VHHs. To this, human FOLR1^pos SKOV-3 cancer cells were incubated with serial dilutions with concentrations ranging from 0 to 300 nM of the different ¹³¹I-labelled, His₆ tagged VHHs. A 100-fold excess of the corresponding unlabeled VHH was added in parallel to saturate the human FOLR1 receptors expressed on cancer cells, to assess non-specific binding.

T1 sequence (P15328 25-233): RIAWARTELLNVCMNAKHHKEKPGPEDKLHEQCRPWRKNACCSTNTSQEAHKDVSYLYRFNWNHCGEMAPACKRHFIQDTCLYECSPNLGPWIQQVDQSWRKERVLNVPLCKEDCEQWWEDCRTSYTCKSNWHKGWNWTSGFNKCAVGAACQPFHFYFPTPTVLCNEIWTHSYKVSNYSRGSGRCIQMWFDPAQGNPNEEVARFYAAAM

B1: His6-tagged variant of VHH A2 (VHH)
VHH: DVQLVESGGGLVQAGGSLRLSCAADEMKFSNYDLAWYRRAPGKQRELAAIITSGGSTNYPDSVKGRFTISRDNAKNTVYLEMNSLKPEDTAVYYCNALRPWPQFSDYWGQGTQVTVSS
notes: Purified, unlabelled; also called A2 His6-tag
The term Kd denotes the equilibrium constant for the complex coming apart. Usually koff stands for a measure of how fast the partners let go of each other. Broadly, the kon is the second-order rate constant of association. Take B1: the equilibrium dissociation constant (Kd) in assay [1] turned out to be 1.5 nM; in assay [4] it was 0.24 nM. Also, the koff was 0.00068 s⁻¹ in assay [1] and 0.00033 s⁻¹ in assay [4]. Besides, the kon in assay [1] was 440000 M⁻¹ s⁻¹; in assay [4] it was 1.3e+06 M⁻¹ s⁻¹. In addition, the “loss in response level of VHH 2 relative to VHH 2 injected alone” value in assay [2] was -86%; in assay [3], -96%; in assay [5], -99%; in assay [6], -96%.

B2: 131I-labeled His6-tagged VHH A2 (VHH)
VHH: B1 VHH
modifications: [131I]SGMIB conjugated to lysine side-chain amine groups
One may read the EC50 as the concentration giving half of the maximal effect. Low values mean higher potency in that assay, high ones lower potency in that assay. On to B2, for which the “cell-associated fraction of initial bound activity after 24 h” value in assay [7] was around 60%. The same molecule came in with an EC50 in assay [8] of 1.1 nM.

B3: 131I-labeled His6-tagged VHH A3 (VHH)
VHH: DVQLVESGGGLVQAGGSLRLSCGVSGNMFSMNLMGWYRQPPGKERDWVAVITKDGSTNYADSVKGRFTISRDNAKNTVSLQMNSLKPEDTAVYYCNVQDGSGWIRAWGWDWGQGTQVTVSS
modifications: [131I]SGMIB conjugated to lysine side-chain amine groups
On to B3, for which, in assay [7], the “cell-associated fraction of initial bound activity after 24 h” value came to 20%. Besides, the EC50 in assay [8] came out at 4.5 nM.

B4: 131I-labeled His6-tagged VHH A4 (VHH)
VHH: DVQLVESGGGLARAGGSLRLSCAASGRAFSSTYAMGWFRQAPGKEREFVADINWSEGSPMYIDSVKDRFTISRDNARNSLYLQMNSLKSEDTAVYYCAARRFGQGYEYWGQGTQVTVSS
modifications: [131I]SGMIB conjugated to lysine side-chain amine groups
For the molecule B4, the “cell-associated fraction of initial bound activity after 24 h” value in assay [7] is 10%. This molecule also gave an EC50 in assay [8] of 5.8 nM.

B5: 131I-labeled His6-tagged VHH A1 (VHH)
VHH: DVQLVESGGGLVQPGGSLRLSCAASESIFSRNHMSWYRQAPGKQRELAAIITSDGNTNYPDSVKGRFTISRDNAKNTVYLQMNSLKPEDTAVYYCNTFGRSVAGFYDYWGQGTQVTVSS
modifications: [131I]SGMIB conjugated to lysine side-chain amine groups
As for B5, the “cell-associated fraction of initial bound activity after 24 h” value in assay [7] is around 40%. This molecule also showed an EC50 in assay [8] of 0.7 nM.
